Here are results for 2 molecules from patent US9751932B2, “Anti-big-endothelin-1 (big-ET-1) antibodies and uses thereof” (Regeneron Pharmaceuticals, Inc., priority 2012, dated 2017).

In test [1] the target is T1, mouse big-ET-1 (cleavage by mouse ECE-1) (Mus musculus, UniProt P22387).
T1 sequence (P22387 53-91): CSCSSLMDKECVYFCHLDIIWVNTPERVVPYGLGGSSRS
Briefly: NFAT luciferase reporter assay (293/ETaR/NFAT-Luc cells) for blocking of ECE-1-mediated cleavage. The test is classed as cell-based. Conditions: read-out: Blocking IC50 20 nM mBig-ET-1 + 5 nM mECE1; human Fc mAbs (Table 5). As to the method:
(§1) Briefly, HEK293 cell lines were generated to stably express full-length human endothelin receptor type A (ETaR) along with a luciferase reporter element [NFAT (4×)-luciferase]. A single clone was isolated and maintained in 10% FBS, DMEM, NEAA, Pen/Strep, and 500 μg/ml G418 and 100 μg/ml hygromycin B.
(§2) Both human and mouse big-ET-1 blocking experiments were allowed to incubate (37° C.; 5% CO2) overnight. The next morning these solutions were added to the 293/ETaR/NFAT-Luc cells (20,000 cells/well) and luciferase activity was detected after 5.5 hrs (37° C.; 5% CO2) using a Victor X plate reader (Perkin Elmer). The amount of luciferase activity observed under these conditions is a proportional representation of the amount of small-ET-1 generated from cleavage of either mouse or human big-ET-1.
Background: Reporter assays use an easily measured gene product as a stand-in for the process of interest.

Test [2] has as its target T2, human big-ET-1 (SEQ ID NO:434) (Homo sapiens, UniProt P05305).
T2 sequence (P05305 53-90 limits assumed): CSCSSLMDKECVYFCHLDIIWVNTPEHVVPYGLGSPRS
The test is described as follows: Surface plasmon resonance (Biacore) binding, mAb capture format, 37° C. Conditions: analyte human big-ET-1, mAb capture. On the procedure:
Measurements were conducted on a T200 Biacore instrument (Biacore Life Sciences division of GE Healthcare, Piscataway, N.J.). […] Different concentrations of small-ET-1 (SEQ ID NO:435), human big-ET-1 (SEQ ID NO:434) or mouse big-ET-1 (SEQ ID NO:437) were injected over the anti-big-ET-1 captured surfaces at a flow rate of 100 μl/min. Peptide binding was monitored for 3 min while dissociation of mAb-bound peptide was monitored for 4 min in HBST running buffer (0.01 M HEPES pH 7.4, 0.15 M NaCl, 3 mM EDTA, 0.005% v/v Surfactant P20). Kinetic association (ka) and dissociation (kd) rate constants were determined by processing and fitting the data to a 1:1 binding model using Scrubber 2.0 curve fitting software.
In general terms: In SPR one partner is held on a chip, and binding of the other changes the refractive index at the surface.

The target of test [3] is T3, human big-ET-1 (cleavage by human ECE-1) (Homo sapiens, UniProt P05305).
T3 sequence (P05305 53-90 limits assumed): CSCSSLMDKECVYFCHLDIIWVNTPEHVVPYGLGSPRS
Briefly: NFAT luciferase reporter assay (293/ETaR/NFAT-Luc cells) for blocking of ECE-1-mediated cleavage. Type of test: cell-based. The note with it: read-out: Blocking IC50 10 nM hBig-ET-1 + 3 nM hECE1; human Fc mAbs (Table 5). On the procedure: as §1, §2

Bounds are passed on as bounds.

B1: H4H6492N2: anti-big-ET-1 antibody, human IgG4 Fc; HCVR/LCVR SEQ ID NO: 418/426 (antibody, V domains shown)
VH: EVQLVESGGGLVKPGGSLRVSCVASGFTFSNAWMTWVRQTPGKGLEWVGRIKSRTDGGTVDYVAPVKGRFTISRDDSKNTLYLQMNSLKAEDTAVYYCRADLDYWGQGTLVTVSS
VL: DVVMTQSPLSLPVSLGQPASISCRSSQSLVHSDGITYLNWFQQRPGQSPRRLIYKISNRDSGVPDRFSGSGSGTDFTLKFSRVEAEDVGVYFCMQGTHWPYTFGQGTKLEIK
modifications: human IgG4 Fc
With B1, the IC50 (commonly the concentration that gives 50% inhibition) in test [1] was more than 100 nM. In test [2], this molecule gave a ka of 424000 M/s and a kd of 0.0297 s⁻¹.

B2: H4H6490N2: anti-big-ET-1 antibody, human IgG4 Fc; HCVR/LCVR SEQ ID NO: 402/410 (antibody, V domains shown)
VH: EVQLLESGGGLVQPGGSLRLSCAASGFTFSSYAMTWVRQAPGKGLEWISAISGSGYSTYYADSMKGRFSISRDNSKNTLYLQMNRLRAEDTAVYYCTKGGRILEWLLPFDFWGQGTLVTVSS
VL: DVVMTQSPLSLPVTLGQPASISCRSSQSLVYSDGNTYLIWFQQRPGQSPRRLIYKVSNRDSGVPDRFSGSGSGTDFTLIISRVEAEDVGLYYCMQGTHWPPTFGGGTKVEIK
modifications: human IgG4 Fc
Take B2: the IC50 in test [3] and in test [1] was more than 100 nM in each case.
